In PMC10333598:

Assays:
[1] = molecular target: Mcl-1 (Homo sapiens) (UniProt Q07820); conditions: cited from earlier work
[2] = molecular target: Bcl-xL (Homo sapiens) (UniProt Q07817); experiment: ITC; conditions: cited from earlier work
[3] = molecular target: human Mcl-1 ΔPESTΔTM (human); experiment: NMR competition (15N SOFAST-HMQC); 15N-Mcl-1 with an excess (5 eq. total) of an equimolar mix of TCTPBH3, TCTPBH3D16I and MuleBH3, 2 h at room temperature; populations from intensities of seven reporter residues; 950 MHz, 298 K, 50 mM MES pH 6.5, 50 mM EPPS, 50 mM NaCl, 2 mM TCEP
[4] = molecular target: human Mcl-1 ΔPESTΔTM (human); experiment: NMR titration; 15N SOFAST-HMQC of 15N-Mcl-1 (100 μM) with unlabeled BH3 peptide added (TCTPBH3 0-500 μM, up to 5 eq.; TCTPBH3D16I and MuleBH3 up to 3 eq.); 950 MHz, 308 K, 50 mM MES pH 6.5, 50 mM EPPS, 50 mM NaCl, 2 mM TCEP; KD and koff from TITAN 2D line shape analysis, two-state model
[5] = molecular target: human Mcl-1 ΔPESTΔTM (human); experiment: SEC + other: SAXS; equimolar mix of TCTP and Mcl-1 (500 μM each), 2 h incubation, Superdex 200 10/300 in line with SAXS; 50 mM CHES pH 9, 50 mM NaCl, 2 mM TCEP; 37 °C (308 K in the legend)

UniProt Q07817, sequence (Q07817 whole entry): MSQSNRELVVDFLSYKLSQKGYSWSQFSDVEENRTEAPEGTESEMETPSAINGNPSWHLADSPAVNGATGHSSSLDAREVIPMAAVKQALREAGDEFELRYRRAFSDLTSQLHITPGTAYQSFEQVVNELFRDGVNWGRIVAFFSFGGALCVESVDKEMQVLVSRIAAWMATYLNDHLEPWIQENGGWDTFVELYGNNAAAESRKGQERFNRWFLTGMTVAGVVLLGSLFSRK
UniProt Q07820, sequence (Q07820 whole entry): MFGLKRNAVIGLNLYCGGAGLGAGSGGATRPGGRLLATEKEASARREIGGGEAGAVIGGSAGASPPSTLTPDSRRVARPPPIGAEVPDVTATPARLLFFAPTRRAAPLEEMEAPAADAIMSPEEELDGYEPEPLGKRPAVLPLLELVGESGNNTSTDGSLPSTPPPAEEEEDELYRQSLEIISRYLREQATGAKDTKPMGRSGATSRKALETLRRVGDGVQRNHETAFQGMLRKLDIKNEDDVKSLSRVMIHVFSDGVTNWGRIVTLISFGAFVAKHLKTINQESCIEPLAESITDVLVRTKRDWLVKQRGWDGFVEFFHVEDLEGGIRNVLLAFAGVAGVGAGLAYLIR

In the case of Mule BH3 (from UniProt Q7Z6Z7), the Kd [1] is listed as 0.029 µM.

For TCTP BH3 (from UniProt P13693), the Kd [2] is given as 12 µM.

B1: TCTP BH3-like peptide (TCTPBH3) (peptide)
peptide: DEMFSDIYKIREIADGLCLEVE
B1 showed a fold weaker affinity than TCTPBH3D16I and MuleBH3 [3] of 10 fold, a Kd [4] of 7.9 µM and a koff [4] of 56 s⁻¹.

B2: full-length human TCTP (FL-TCTP) (natural protein)
chain: MIIYRDLISHDEMFSDIYKIREIADGLCLEVEGKMVSRTEGNIDDSLIGGNASAEGPEGEGTESTVITGVDIVMNHHLQETSFTKEAYKKYIKDYMKSIKGKLEEQRPERVKPFMTGAAEQIKHILANFKNYQFFIGENMNPDGMVALLDYREDGVTPYMIFFKDGLEMEKC
B2 showed a stoichiometry N [5] of 1.

B3: TCTP BH3-like peptide D16I mutant (TCTPBH3D16I) (peptide)
peptide: DEMFSIIYKIREIADGLCLEVE
For B3, the relative population of Mcl-1 bound (in the mix of three peptides) [3] was 45%.
